Values quoted from earlier work as cited in paper PMC2702134.

Molecular target: Glu50 (UniProt position 50, LEWIGEINPDS)

Catalytic antibody 34E4 (Kemp eliminase)
pKa: 6.4
